Experimental findings from patent publication US20260070987A1 are described below.

B1: equine IgG1 T286M (antibody, part only; not given: variable domains, not shown: another chain or arm of the molecule)
constant: ASTTAPKVFALAPGCGTTSDSTVALGCLVSGYFPEPVKVSWNSGSLTSGVHTFPSVLQSSGFYSLSSMVTVPASTWTSETYICNVVHAASNFKVDKRIEPIPDNHQKVCDMSKCPKCPAPELLGGPSVFIFPPNPKDTLMITRTPEVTCVVVDVSQENPDVKFNWYMDGVEVRMATTRPKEEQFNSTYRVVSVLRIQHQDWLSGKEFKCKVNNQALPQPIERTITKTKGRSQEPQVYVLAPHPDELSKSKVSVTCLVKDFYPPEINIEWQSNGQPELETKYSTTQAQQDSDGSYFLYSKLSVDRNRWQQGTTFTCGVMHEALHNHYTQKNVSKNPGK
B2: equine IgG4 M428L (antibody, part only; not given: Variable domains, not shown: another chain or arm of the molecule)
constant: ASTTAPKVFPLASHSAATSGSTVALGCLVSSYFPEPVTVSWNSGALTSGVHTFPSVLQSSGLYSLSSMVTVPASSLKSQTYICNVAHPASSTKVDKKIVIKECNGGCPAECLQVGPSVFIFPPKPKDVLMISRTPTVTCVVVDVGHDFPDVQFNWYVDGVETHTATTEPKQEQFNSTYRVVSVLPIQHKDWLSGKEFKCKVNNKALPAPVERTISKPTGQPREPQVYVLAPHRDELSKNKVSVTCLVKDFYPTDIDIEWKSNGQPEPETKYSTTPAQLDSDGSYFLYSKLTVETNRWQQGTTFTCAVLHEALHNHYTEKSVSKSPGK
B3: equine IgG4 M428Q (antibody, part only; not given: variable domains, not shown: another chain or arm of the molecule)
constant: ASTTAPKVFPLASHSAATSGSTVALGCLVSSYFPEPVTVSWNSGALTSGVHTFPSVLQSSGLYSLSSMVTVPASSLKSQTYICNVAHPASSTKVDKKIVIKECNGGCPAECLQVGPSVFIFPPKPKDVLMISRTPTVTCVVVDVGHDFPDVQFNWYVDGVETHTATTEPKQEQFNSTYRVVSVLPIQHKDWLSGKEFKCKVNNKALPAPVERTISKPTGQPREPQVYVLAPHRDELSKNKVSVTCLVKDFYPTDIDIEWKSNGQPEPETKYSTTPAQLDSDGSYFLYSKLTVETNRWQQGTTFTCAVQHEALHNHYTEKSVSKSPGK
B4: equine IgG4 M428Y (antibody, part only; not given: variable domains, not shown: another chain or arm of the molecule)
constant: ASTTAPKVFPLASHSAATSGSTVALGCLVSSYFPEPVTVSWNSGALTSGVHTFPSVLQSSGLYSLSSMVTVPASSLKSQTYICNVAHPASSTKVDKKIVIKECNGGCPAECLQVGPSVFIFPPKPKDVLMISRTPTVTCVVVDVGHDFPDVQFNWYVDGVETHTATTEPKQEQFNSTYRVVSVLPIQHKDWLSGKEFKCKVNNKALPAPVERTISKPTGQPREPQVYVLAPHRDELSKNKVSVTCLVKDFYPTDIDIEWKSNGQPEPETKYSTTPAQLDSDGSYFLYSKLTVETNRWQQGTTFTCAVYHEALHNHYTEKSVSKSPGK
B5: equine IgG4 M428T (antibody, part only; not given: variable domains, not shown: another chain or arm of the molecule)
constant: ASTTAPKVFPLASHSAATSGSTVALGCLVSSYFPEPVTVSWNSGALTSGVHTFPSVLQSSGLYSLSSMVTVPASSLKSQTYICNVAHPASSTKVDKKIVIKECNGGCPAECLQVGPSVFIFPPKPKDVLMISRTPTVTCVVVDVGHDFPDVQFNWYVDGVETHTATTEPKQEQFNSTYRVVSVLPIQHKDWLSGKEFKCKVNNKALPAPVERTISKPTGQPREPQVYVLAPHRDELSKNKVSVTCLVKDFYPTDIDIEWKSNGQPEPETKYSTTPAQLDSDGSYFLYSKLTVETNRWQQGTTFTCAVTHEALHNHYTEKSVSKSPGK
B6: equine IgG4 M428R (antibody, part only; not given: variable domains, not shown: another chain or arm of the molecule)
constant: ASTTAPKVFPLASHSAATSGSTVALGCLVSSYFPEPVTVSWNSGALTSGVHTFPSVLQSSGLYSLSSMVTVPASSLKSQTYICNVAHPASSTKVDKKIVIKECNGGCPAECLQVGPSVFIFPPKPKDVLMISRTPTVTCVVVDVGHDFPDVQFNWYVDGVETHTATTEPKQEQFNSTYRVVSVLPIQHKDWLSGKEFKCKVNNKALPAPVERTISKPTGQPREPQVYVLAPHRDELSKNKVSVTCLVKDFYPTDIDIEWKSNGQPEPETKYSTTPAQLDSDGSYFLYSKLTVETNRWQQGTTFTCAVRHEALHNHYTEKSVSKSPGK
B7: equine IgG4 M428V (antibody, part only; not given: Variable domains, not shown: another chain or arm of the molecule)
constant: ASTTAPKVFPLASHSAATSGSTVALGCLVSSYFPEPVTVSWNSGALTSGVHTFPSVLQSSGLYSLSSMVTVPASSLKSQTYICNVAHPASSTKVDKKIVIKECNGGCPAECLQVGPSVFIFPPKPKDVLMISRTPTVTCVVVDVGHDFPDVQFNWYVDGVETHTATTEPKQEQFNSTYRVVSVLPIQHKDWLSGKEFKCKVNNKALPAPVERTISKPTGQPREPQVYVLAPHRDELSKNKVSVTCLVKDFYPTDIDIEWKSNGQPEPETKYSTTPAQLDSDGSYFLYSKLTVETNRWQQGTTFTCAVVHEALHNHYTEKSVSKSPGK
B8: equine IgG4 M428N (antibody, part only; not given: variable domains, not shown: another chain or arm of the molecule)
constant: ASTTAPKVFPLASHSAATSGSTVALGCLVSSYFPEPVTVSWNSGALTSGVHTFPSVLQSSGLYSLSSMVTVPASSLKSQTYICNVAHPASSTKVDKKIVIKECNGGCPAECLQVGPSVFIFPPKPKDVLMISRTPTVTCVVVDVGHDFPDVQFNWYVDGVETHTATTEPKQEQFNSTYRVVSVLPIQHKDWLSGKEFKCKVNNKALPAPVERTISKPTGQPREPQVYVLAPHRDELSKNKVSVTCLVKDFYPTDIDIEWKSNGQPEPETKYSTTPAQLDSDGSYFLYSKLTVETNRWQQGTTFTCAVNHEALHNHYTEKSVSKSPGK
B9: equine IgG4 M428S (antibody, part only; not given: variable domains, not shown: another chain or arm of the molecule)
constant: ASTTAPKVFPLASHSAATSGSTVALGCLVSSYFPEPVTVSWNSGALTSGVHTFPSVLQSSGLYSLSSMVTVPASSLKSQTYICNVAHPASSTKVDKKIVIKECNGGCPAECLQVGPSVFIFPPKPKDVLMISRTPTVTCVVVDVGHDFPDVQFNWYVDGVETHTATTEPKQEQFNSTYRVVSVLPIQHKDWLSGKEFKCKVNNKALPAPVERTISKPTGQPREPQVYVLAPHRDELSKNKVSVTCLVKDFYPTDIDIEWKSNGQPEPETKYSTTPAQLDSDGSYFLYSKLTVETNRWQQGTTFTCAVSHEALHNHYTEKSVSKSPGK
B10: equine IgG4 M428P (antibody, part only; not given: variable domains, not shown: another chain or arm of the molecule)
constant: ASTTAPKVFPLASHSAATSGSTVALGCLVSSYFPEPVTVSWNSGALTSGVHTFPSVLQSSGLYSLSSMVTVPASSLKSQTYICNVAHPASSTKVDKKIVIKECNGGCPAECLQVGPSVFIFPPKPKDVLMISRTPTVTCVVVDVGHDFPDVQFNWYVDGVETHTATTEPKQEQFNSTYRVVSVLPIQHKDWLSGKEFKCKVNNKALPAPVERTISKPTGQPREPQVYVLAPHRDELSKNKVSVTCLVKDFYPTDIDIEWKSNGQPEPETKYSTTPAQLDSDGSYFLYSKLTVETNRWQQGTTFTCAVPHEALHNHYTEKSVSKSPGK
B11: equine IgG4 M428W (antibody, part only; not given: variable domains, not shown: another chain or arm of the molecule)
constant: ASTTAPKVFPLASHSAATSGSTVALGCLVSSYFPEPVTVSWNSGALTSGVHTFPSVLQSSGLYSLSSMVTVPASSLKSQTYICNVAHPASSTKVDKKIVIKECNGGCPAECLQVGPSVFIFPPKPKDVLMISRTPTVTCVVVDVGHDFPDVQFNWYVDGVETHTATTEPKQEQFNSTYRVVSVLPIQHKDWLSGKEFKCKVNNKALPAPVERTISKPTGQPREPQVYVLAPHRDELSKNKVSVTCLVKDFYPTDIDIEWKSNGQPEPETKYSTTPAQLDSDGSYFLYSKLTVETNRWQQGTTFTCAVWHEALHNHYTEKSVSKSPGK

This assay has as its target equine FcRn (large alpha subunit p51) / equine beta-2-microglobulin complex, biotinylated (equine) (UniProt P30441). Put plainly: SPR (Biacore), pH 6.
Sequence of UniProt P30441 (P30441 21-118, one chain of several): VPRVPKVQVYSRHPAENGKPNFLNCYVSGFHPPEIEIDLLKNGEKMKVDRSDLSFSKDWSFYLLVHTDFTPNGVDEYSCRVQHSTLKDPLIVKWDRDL
In the case of B1, the Kd worked out at 15.6 nM.

Turning to B2, the dissociation constant (Kd) is 17.4 nM.

B3: the Kd was found to be 30 nM.

On to B4, for which the Kd was 30.8 nM.

Consider B5, for which the Kd was 71.8 nM.

For B6, the dissociation constant (Kd) came out at 93.1 nM.

In turn, B7 came in with a Kd of 75.2 nM.

On to B8, for which the Kd was 44.3 nM.

With B9, the Kd was 40.6 nM. The Kd values of the last two molecules are within 1.5-fold of each other.

Turning to B10, the Kd amounted to 13000 nM.

In turn, B11 had a Kd of 31 nM. Compared with the last molecule, the Kd is about 420-fold lower.
